Measurements taken from publication PMC10266979.

Key:
[1] = molecular target: recombinant N2 NA A/Hong Kong/2671/2019 (N245 glycan) (influenza A virus H3N2 A/Hong Kong/2671/2019); experiment: SPR
[2] = molecular target: neuraminidase (N2) of influenza A virus A/Cambodia/E0826360/2020 (H3N2) (influenza A virus A/Cambodia/E0826360/2020 (H3N2))
[3] = molecular target: neuraminidase (N1) of influenza A virus A/Hawaii/66/2019 (H1N1) (influenza A virus A/Hawaii/66/2019 (H1N1))
[4] = molecular target: neuraminidase (N2) of influenza A virus A/Tasmania/503/2020 (H3N2) (influenza A virus A/Tasmania/503/2020 (H3N2))
[5] = molecular target: neuraminidase (N2) of influenza A virus A/SouthAustralia/34/2019 (H3N2) (influenza A virus A/SouthAustralia/34/2019 (H3N2))
[6] = molecular target: recombinant N2 NA A/Hong Kong/2671/2019 (N245 glycan) (influenza A virus H3N2 A/Hong Kong/2671/2019)
[7] = molecular target: neuraminidase of influenza B virus B/Phuket/3073/2013 (Yamagata) (influenza B virus B/Phuket/3073/2013 (Yamagata))
[8] = molecular target: neuraminidase (N2) of influenza A virus A/Darwin/6/2021 (H3N2) (influenza A virus A/Darwin/6/2021 (H3N2))
[9] = molecular target: neuraminidase of influenza B virus B/Utah/9/2014 (Yamagata) (influenza B virus B/Utah/9/2014 (Yamagata))
[10] = molecular target: neuraminidase of influenza B virus B/Brisbane/35/2018 (Victoria) (influenza B virus B/Brisbane/35/2018 (Victoria))
[11] = molecular target: neuraminidase (N2) of influenza A virus A/HongKong/4801/2014 (H3N2) (influenza A virus A/HongKong/4801/2014 (H3N2))
[12] = molecular target: neuraminidase (N2) of influenza A virus A/Victoria/361/2011 (H3N2) (influenza A virus A/Victoria/361/2011 (H3N2))
[13] = molecular target: neuraminidase (N1) of influenza A virus A/Victoria/2570/2019 (H1N1) (influenza A virus A/Victoria/2570/2019 (H1N1))
[14] = molecular target: neuraminidase (N1) of influenza A virus A/Puerto Rico/1934 (H1N1) (influenza A virus A/Puerto Rico/8/34 (H1N1)) (UniProt P03468)
[15] = molecular target: neuraminidase (N2) of influenza A virus A/Michigan/173/2020 (H3N2) (influenza A virus A/Michigan/173/2020 (H3N2))
[16] = molecular target: neuraminidase (N1) of influenza A virus A/Idaho/07/2018 (H1N1) (influenza A virus A/Idaho/07/2018 (H1N1))
[17] = molecular target: neuraminidase of influenza B virus B/Brisbane/60/2008 (Victoria) (influenza B virus B/Brisbane/60/2008 (Victoria))
[18] = molecular target: neuraminidase of influenza B virus B/Lee/1940 (Ancestral) (influenza B virus B/Lee/1940 (Ancestral)) (UniProt P03474)
UniProt P03474, sequence (P03474 whole entry): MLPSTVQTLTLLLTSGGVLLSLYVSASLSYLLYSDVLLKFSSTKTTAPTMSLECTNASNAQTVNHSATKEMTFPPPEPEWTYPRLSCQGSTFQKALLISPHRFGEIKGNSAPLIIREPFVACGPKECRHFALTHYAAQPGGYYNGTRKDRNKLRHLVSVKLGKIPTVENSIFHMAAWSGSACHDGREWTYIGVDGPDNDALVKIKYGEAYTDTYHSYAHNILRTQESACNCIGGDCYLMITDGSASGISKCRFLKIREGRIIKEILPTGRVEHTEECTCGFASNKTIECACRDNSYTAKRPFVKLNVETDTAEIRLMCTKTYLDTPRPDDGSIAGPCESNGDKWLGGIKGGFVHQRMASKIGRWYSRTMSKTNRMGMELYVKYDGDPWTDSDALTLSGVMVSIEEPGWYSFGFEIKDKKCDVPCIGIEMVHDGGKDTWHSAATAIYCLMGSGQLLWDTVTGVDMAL

[19] = molecular target: neuraminidase (N2) of influenza A virus A/Kansas/14/2017 (H3N2) (influenza A virus A/Kansas/14/2017 (H3N2))
[20] = molecular target: neuraminidase (N1) of influenza A virus A/Michigan/45/2015 (H1N1) (influenza A virus A/Michigan/45/2015 (H1N1))
[21] = molecular target: neuraminidase of influenza B virus B/Colorado/6/2017 (Victoria) (influenza B virus B/Colorado/6/2017 (Victoria))
[22] = molecular target: neuraminidase of influenza B virus B/Texas/6/2011 (Yamagata) (influenza B virus B/Texas/6/2011 (Yamagata))
[23] = molecular target: neuraminidase of influenza B virus B/Washington/02/2019 (Victoria) (influenza B virus B/Washington/02/2019 (Victoria))
[24] = molecular target: neuraminidase of influenza B virus B/Laos/0080/2016 (Victoria) (influenza B virus B/Laos/0080/2016 (Victoria))
[25] = molecular target: neuraminidase (N1) of influenza A virus A/Illinois/45/2019 (H1N1) (influenza A virus A/Illinois/45/2019 (H1N1))

Substance	Kd [1]	In vitro neutralization IC50; virus A/Cambodia/E0826360/2020 (H3N2); mAb as IgG [2]	In vitro neutralization IC50; virus A/Hawaii/66/2019 (H1N1); mAb as IgG [3]	In vitro neutralization IC50; virus A/Tasmania/503/2020 (H3N2); mAb as IgG [4]	In vitro neutralization IC50; virus A/SouthAustralia/34/2019 (H3N2); mAb as IgG [5]	In vitro neutralization IC50; virus A/HongKong/2671/2019 (H3N2); mAb as IgG [6]	In vitro neutralization IC50; virus B/Phuket/3073/2013 (Yamagata); mAb as IgG [7]	In vitro neutralization IC50; virus A/Darwin/6/2021 (H3N2); mAb as IgG [8]	In vitro neutralization IC50; virus B/Utah/9/2014 (Yamagata); mAb as IgG [9]	In vitro neutralization IC50; virus B/Brisbane/35/2018 (Victoria); mAb as IgG [10]	In vitro neutralization IC50; virus A/HongKong/4801/2014 (H3N2); mAb as IgG [11]	In vitro neutralization IC50; virus A/Victoria/361/2011 (H3N2); mAb as IgG [12]	In vitro neutralization IC50; virus A/Victoria/2570/2019 (H1N1); mAb as IgG [13]	In vitro neutralization IC50; virus A/Puerto Rico/1934 (H1N1); mAb as IgG [14]	In vitro neutralization IC50; virus A/Michigan/173/2020 (H3N2); mAb as IgG [15]	In vitro neutralization IC50; virus A/Idaho/07/2018 (H1N1); mAb as IgG [16]	In vitro neutralization IC50; virus B/Brisbane/60/2008 (Victoria); mAb as IgG [17]	In vitro neutralization IC50; virus A/Kansas/14/2017 (H3N2); mAb as IgG [19]	In vitro neutralization IC50; virus A/Michigan/45/2015 (H1N1); mAb as IgG [20]	In vitro neutralization IC50; virus B/Colorado/6/2017 (Victoria); mAb as IgG [21]	also measured
FNI19 Fab	15.1 nM	1.47 µg/mL	0.021 µg/mL	1.18 µg/mL	1.11 µg/mL	0.19 µg/mL	0.222 µg/mL	2.79 µg/mL	0.391 µg/mL	0.02 µg/mL	0.122 µg/mL	0.091 µg/mL	0.071 µg/mL	0.012 µg/mL	1.77 µg/mL	0.043 µg/mL	0.152 µg/mL	0.559 µg/mL	0.062 µg/mL	1.17 µg/mL	In vitro neutralization IC50; virus B/Lee/1940 (Ancestral); mAb as IgG [18]: 0.211 µg/mL; In vitro neutralization IC50; virus B/Texas/6/2011 (Yamagata); mAb as IgG [22]: 0.229 µg/mL; In vitro neutralization IC50; virus B/Washington/02/2019 (Victoria); mAb as IgG [23]: 0.063 µg/mL; In vitro neutralization IC50; virus B/Laos/0080/2016 (Victoria); mAb as IgG [24]: 0.029 µg/mL; In vitro neutralization IC50; virus A/Illinois/45/2019 (H1N1); mAb as IgG [25]: 0.039 µg/mL
FNI17 Fab	2100 nM	24.3 µg/mL	0.018 µg/mL	5.07 µg/mL	2.98 µg/mL	5.07 µg/mL	0.117 µg/mL	> 50 µg/mL	0.392 µg/mL	0.024 µg/mL	0.208 µg/mL	0.175 µg/mL	0.036 µg/mL	0.011 µg/mL	33.1 µg/mL	0.022 µg/mL	0.191 µg/mL	0.485 µg/mL	0.073 µg/mL	0.042 µg/mL	In vitro neutralization IC50; virus B/Lee/1940 (Ancestral); mAb as IgG [18]: 0.071 µg/mL; In vitro neutralization IC50; virus B/Texas/6/2011 (Yamagata); mAb as IgG [22]: 0.062 µg/mL; In vitro neutralization IC50; virus B/Washington/02/2019 (Victoria); mAb as IgG [23]: 0.019 µg/mL; In vitro neutralization IC50; virus B/Laos/0080/2016 (Victoria); mAb as IgG [24]: 0.018 µg/mL; In vitro neutralization IC50; virus A/Illinois/45/2019 (H1N1); mAb as IgG [25]: 0.035 µg/mL
1G01 Fab	375 nM	18.6 µg/mL	0.306 µg/mL	26.1 µg/mL	4.4 µg/mL	21.5 µg/mL	> 50 µg/mL	> 50 µg/mL	> 50 µg/mL	> 50 µg/mL	0.058 µg/mL	0.039 µg/mL	15.1 µg/mL	4.81 µg/mL	6.2 µg/mL	0.293 µg/mL	> 50 µg/mL	4.52 µg/mL	0.57 µg/mL	1.63 µg/mL	In vitro neutralization IC50; virus B/Texas/6/2011 (Yamagata); mAb as IgG [22]: > 50 µg/mL; In vitro neutralization IC50; virus B/Washington/02/2019 (Victoria); mAb as IgG [23]: 5.61 µg/mL; In vitro neutralization IC50; virus B/Laos/0080/2016 (Victoria); mAb as IgG [24]: 13.5 µg/mL; In vitro neutralization IC50; virus A/Illinois/45/2019 (H1N1); mAb as IgG [25]: 0.673 µg/mL
FNI9 Fab	16 nM	1.61 µg/mL	0.039 µg/mL	2.01 µg/mL	0.76 µg/mL	0.073 µg/mL	0.193 µg/mL	1.13 µg/mL	0.245 µg/mL	0.026 µg/mL	0.022 µg/mL	0.082 µg/mL	0.168 µg/mL	0.028 µg/mL	3.09 µg/mL	0.079 µg/mL	1.16 µg/mL	0.284 µg/mL	0.151 µg/mL	0.669 µg/mL	In vitro neutralization IC50; virus B/Lee/1940 (Ancestral); mAb as IgG [18]: 0.051 µg/mL; In vitro neutralization IC50; virus B/Texas/6/2011 (Yamagata); mAb as IgG [22]: 0.104 µg/mL; In vitro neutralization IC50; virus B/Washington/02/2019 (Victoria); mAb as IgG [23]: 0.031 µg/mL; In vitro neutralization IC50; virus B/Laos/0080/2016 (Victoria); mAb as IgG [24]: 0.047 µg/mL; In vitro neutralization IC50; virus A/Illinois/45/2019 (H1N1); mAb as IgG [25]: 0.243 µg/mL
